# Test results as given in PMC4748810, “Structural basis for the endoribonuclease activity of the type III-A CRISPR-associated protein Csm6” (RNA, 2016).
# Residue numbers refer to the chain shown, from its start. Numbers in names are those of the source.
# B1: Thermus thermophilus Csm6 (enzyme, UniProt Q53W17 1-464, looked up)
# chain: MEDLDALWERYREAVRAGGNPQALYQEMVWPALLALWREKPRVYPFPQAFAVSVHTLGTSPEATALAILGAGAERVYVLHTPESARFLPRLRQDTGKDLYPVEIGKSDVEAIYREVKRLLEKHPEVPVALDLTSGTKAMSAGLAAAGFFFQRFYPKVRVVYVDNEDYDPELRRPRAGTEKLRILPNPHEALAEVDALFAKELYGKGEFGQAAAYFRGMVGRTGNQAYALYALLAEMYRAWRALDFGEALKAGRKLLGQLSQNVWLNHPLNARREALEAQVALLEAVDRFLKARDFALKEGVYGLARTLLHLAQEAKEEAAVLAALYAYRALELLLQERLALLGRRAEAPGLSPEEAEALRKALAELLGVLPEEVRLPAKLGLLDLLAFLRLKGDEALGRLSLAELRGLAGALKGRNSALLVHGFDVPSPKAVEGIARLAQGLLQDLEARTALGPLSPEPVPLGF
# notes: amplified from genomic DNA; Homodimer in the crystal and in solution; also called TtCsm6; TTHB152; not shown: His6, N-terminal, cleaved
# B2: TtCsm6 with Glu332 substituted by alanine (enzyme, Thermus thermophilus, UniProt Q53W17 1-464, looked up)
# chain: B1 chain with E332A
# notes: also called E332A; not shown: His6, N-terminal, cleaved
# B3: TtCsm6 with His422 substituted by alanine (enzyme, Thermus thermophilus, UniProt Q53W17 1-464, looked up)
# chain: B1 chain with H422A
# notes: also called H422A; not shown: His6, N-terminal, cleaved
# B4: TtCsm6 with Arg415 substituted by alanine (enzyme, Thermus thermophilus, UniProt Q53W17 1-464, looked up)
# chain: B1 chain with R415A
# notes: also called R415A; not shown: His6, N-terminal, cleaved
# B5: TtCsm6 with Asn416 substituted by alanine (enzyme, Thermus thermophilus, UniProt Q53W17 1-464, looked up)
# chain: B1 chain with N416A
# notes: also called N416A; not shown: His6, N-terminal, cleaved
# Target: the molecule itself
# Experiment: SEC; size-exclusion chromatography of purified proteins (Supplemental Fig. 3); the purification used Superdex 200 (26/600) in 20 mM HEPES 7.5, 500 mM KCl
row,Protein,stoichiometry N
1,B1,2
2,B2,2
3,B3,2
4,B4,2
5,B5,2
